Values of other authors in paper PMC10611464.
pKd: −log10 of the molar value. Like-named read-outs stand apart in the source and are kept apart here.

Key:
PACAP (Homo sapiens) [1] = target: PACAP (Homo sapiens) (UniProt P18509)
VIP (Homo sapiens) [2] = target: VIP (Homo sapiens) (UniProt P01282)
PACAP (Homo sapiens) [3] = target: PACAP (Homo sapiens) (UniProt P18509); remark: listed apart in the source
PACAP (Homo sapiens) [4] = target: PACAP (Homo sapiens) (UniProt P18509); remark: listed apart in the source
VIP (Homo sapiens) [5] = target: VIP (Homo sapiens) (UniProt P01282); remark: listed apart in the source

Sequence of UniProt P18509 (P18509 82-129): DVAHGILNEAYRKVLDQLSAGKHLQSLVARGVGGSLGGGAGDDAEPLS
Sequence of UniProt P01282 (P01282 125-152): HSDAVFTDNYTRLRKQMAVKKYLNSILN

With PAC1 (from UniProt P41586) as the substance, how does the pKd (PACAP (Homo sapiens) [1]) read?
The pKd was 9.30.

With VPAC1 (from UniProt P32241) as the substance, how does the pKd (VIP (Homo sapiens) [2]) read?
Its pKd is 9.00.

And the pKd (PACAP (Homo sapiens) [3])?
The pKd was 9.00.

With VPAC2 (from UniProt P41587) as the substance, how does the pKd (PACAP (Homo sapiens) [4]) read?
The pKd was 9.00.

And the pKd (VIP (Homo sapiens) [5])?
The pKd was 9.00.
